From the nanobody polyreactivity screen of Harvey et al. (2022)

Experiment: yeast display, Sf9 membrane polyspecificity reagent, FACS + sequencing; frameworks hold sequencing errors
Summary of the method: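 After 36–48 hours of galactose induction, yeast (Saccharomyces cerevisiae BJ5465) displaying a synthetic nanobody library were stained at 4 °C for 1 hour with 10% biotinylated, detergent-solubilized Sf9 membrane reagent. Streptavidin microbeads enriched the stained cells before FACS sorting into low and high (top ~1%) gates on anti-HA and streptavidin fluorescence. Each clone's polyreactivity label reflects its gate of origin.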

Sequence	polyreactivity (PSR sort gate)
QVQLVESGGGLVQAGGSLRLSCAASGSTFYIYAMGWYRPAPGKERELVAAIDWTGSTYYADSVKGRFTISRDNAKNTVNLQMNSLKPEDTAVYYCAAYYDLEDDSYRLNSWGQGTQVTVSS	high polyreactivity
QVQLVESGGGLVQAGGSLRLSCAASGSTFYIYAMGWYRQAPGKERELVAAISGRGGSTYYADSVKGRFTISRDNAKNTVYLQMNSLKPEDTAVYYCATSLRVRRSSRDYWGQGTQVTVSS	high polyreactivity
QVQLVESGGGLVQAGGSLRLSCAASGSTFYIYAMGWYRQAPGKERELVARITRGGTTYADSVKGRFTISRDNAKNTVYLQINSLKPEDTAVYYCAARSFNIRGRYDYWGQGTQVTVSS	high polyreactivity
QVQLVESGGGLVQAGGSLRLSCAASGSTFYIYAMGWYRQAPGKERELVASIRLSTGRTNYADSVKGRFTISRDNAKNTVYLQMNSLKPEDTAVYYCAAAGYRGGGYWGQGTQVTVSS	high polyreactivity
QVQLVESGGGLVQAGGSLRLSCAASGSTFYIYAMGWYRQAPGQERELVATISWSGGSTYYADSVKGRFTISRDNAKNTVYLQMNSLKPEDTAVYYCAVRPGFGRSLWYGYWGQGTQVTVSS	high polyreactivity
QVQLVESGGGLVQAGGSLRLSCAASGSTFYIYAMGWYRQSPGKERELVAVITRGGSTYYADSVKGRFTISRDNAKNTVYLQMNSLKPEDTAVYYCAARYWNGTRDTYGSWGQGTQVTVSS	high polyreactivity
QVQLVESGGGLVQAGGSLRLSCAASGSTFYKNAMGWYRQAPGKERELVARISGRGGSTYYADSVKCRFTISRDNAKNSVYLQMNSLKPEDTAVYYCNAVKYSSSAALYDYWGQGTQVTVSS	high polyreactivity
QVQLVESGGGLVQAGGSLRLSCAASGSTFYKNTMGWYRQAPGKERELVATISSGDSTYADSVKGRFTISRDNAKNTVYLQMNSLKPEDTAVYYCAAASDLPGTGGYDYWGPGTQVTVSS	low polyreactivity
QVQLVESGGGLVQAGGSLRLSCAASGSTFYLNAMGSYRQAPGKERELVAAISSGGRTYYADSVKGRFPISRDNAKNTDYLQMNSLKPEDTAVYYCNAVRYLRGAYNYWGQGTQVTVSS	high polyreactivity
QVQLVESGGGLVQAGGSLRLSCAASGSTFYLNAMGWYRQAPGKERELVAAISSGGNTNYADSVKGRFTISRDNAKNTVYLQMNSLKPEDTAVYYCAAVYLSWYGLGEYWGQGTQVTVSS	low polyreactivity
QVQLVESGGGLVQAGGSLRLSCAASGSTFYLNAMGWYRQAPGKERELVAVITRSGGNTYYADSVKGRFTISRDNAKNTVYLQMNSLKPEDTAVYYCNKRPTGGKYEYWGQGTQVTVSS	high polyreactivity
QVQLVESGGGLVQAGGSLRLSCAASGSTFYLNPMGWYRQAPGKERELVAVITSSGGSTNYADSVKGRFTISRDNAKITVYLQMNSLKPEDSAVYYCNRRPYPSYDYWGHGTQVTVSS	low polyreactivity
QVQLVESGGGLVQAGGSLRLSCAASGSTFYLYAMGWYRQAPGKEREFVAAITYSAGSTYYADSVKGRFTISRDNAKNTVYLQMNSLKPEDTAVYYCAARHYAVRRSRYPGKLGYYWGQGTQVTVSS	high polyreactivity
QVQLVESGGGLVQAGGSLRLSCAASGSTFYLYAMGWYRQAPGKERELVAAIRGGGITNYADSVKGRFTISRDNAKNTVYLQINSLKPEDTAVYYCAADSTLRGFDYWGQGTQVTVSS	high polyreactivity
QVQLVESGGGLVQAGGSLRLSCAASGSTFYLYAMGWYRQAPGKERELVAAISWSGDSTYYADSVKGRFTISRDNAKNTVYLQMNSLKPEDTAVYYCAAEFYWGDLSYWGQGTQVTVSS	high polyreactivity
QVQLVESGGGLVQAGGSLRLSCAASGSTFYLYAMGWYRQAPGKERELVARISSSGGRTYYADSVKGRFTISRDNAKNTVYLQMNSLKPEDTAVYYCAASSFTSSYNYWGQGTQVTVSS	high polyreactivity
QVQLVESGGGLVQAGGSLRLSCAASGSTFYLYVMGWYRQAPGKERELVAAIRRSGTRTYYADSVKGRFTISRDNAKNTVYLQMNSLKPEDTAVYYCAARYSRPSKAYGYWGQGTQVTVSS	high polyreactivity
QVQLVESGGGLVQAGGSLRLSCAASGSTFYNYAMGWYRQAPGKERELVAAISSSGGRTYYADSVKGRFTISRDNAKNTVYLQMNSLKPEDTAVYYCAASGRKNGMNYWGQGTQVTVSS	high polyreactivity
QVQLVESGGGLVQAGGSLRLSCAASGSTFYNYAMGWYRQAPGKERELVAAITSSGDRTYYADSVKGRFTISRDNAKNTVYLQMNSLKPEDTAVYYCATRRYFRYEYWGQGTQVTVSS	low polyreactivity
QVQLVESGGGLVQAGGSLRLSCAASGSTFYPYAMGWYIQAPGKERELVARISSDGSTYADSVKGRFTISRDNAKNTVYLQMNSLKPEDTAVYYCNADAGTGVGWWDDYDYWGQGTQVTVSS	low polyreactivity
QVQLVESGGGLVQAGGSLRLSCAASGSTFYPYAMGWYRQAPGKERELVAAISSGGSTNYADSVKGRFTISRDNAKYTVYLQMNSLKPEDTAVYYCAAASGSRRHGYWGQGTQVTVSS	high polyreactivity

Sequence	polyreactivity (PSR sort gate)
QVQLVESGGGLVQAGGSLRLSCAASGSTFYPYAMGWYRQAPGKERELVAAISSGGSTSYADSVKGRFTISRDNAKNTVYLQMNSLKPEDTEVYYCNASSPGAVPVYDYDYWGQGTQVTVSS	low polyreactivity
QVQLVESGGGLVQAGGSLRLSCAASGSTFYPYAMGWYRQAPGKERELVAAISYSGGSTYYADSVKGRFTISRDNAKNTVYLQMNSLKPEDTAVYYCAAYYRVYGASYDYWGQGTQVTVSS	high polyreactivity
QVQLVESGGGLVQAGGSLRLSCAASGSTFYPYAMGWYRQAPGKERELVAAITVSGGSTYYADSVKGRFTISRDNAKNTVYLQMNSLKPEDTAVYYCAVDGDPVFYTTYYYSYYYWGQGTQVTVSS	low polyreactivity
QVQLVESGGGLVQAGGSLRLSCAASGSTFYPYAMGWYRQAPGKERELVAAITYRGGSTYYADSVKGRFTISRDNAKNTVYLQMNSLKPEDTAVYYCAADIGRHTDNYDPRYDYWGQGTQVTVSS	low polyreactivity
QVQLVESGGGLVQAGGSLRLSCAASGSTFYPYAMGWYRQATGKERELVAAISSGGSTSYADSVKGRFTISRDNAKNTVYLQMNSLKPEDTAVYFCNASSPGAVPVYDYDYWGQGTQVTVSS	low polyreactivity
QVQLVESGGGLVQAGGSLRLSCAASGSTFYPYSMGWYRQAPGKERELSTYADSVKGRFTISRDNAKNSVYLQMNSLKPEDTAVYYCAALHWRWYDYWGQGTQVTVSS	low polyreactivity
QVQLVESGGGLVQAGGSLRLSCAASGSTFYPYVMGWYRQAPGKEREFVAAISKSGGSTYYADSVKGRFTISRDNAKNTVYLQMNSLKPEDTAVYYCNKKVASYYRSYYYWGQGTQVTVSS	high polyreactivity
QVQLVESGGGLVQAGGSLRLSCAASGSTFYQYSMGLYRQAHVKEREFVAAITTIGGLTFYADSVKGRFTISRDNAKNTVYLQMHSLKPEDTAVYYCAAGYRAWDPYGHYGYWGQGTQVTVSS	high polyreactivity
QVQLVESGGGLVQAGGSLRLSCAASGSTFYRNAMGWYRQAPGKERELVAAISTRGSSTYYADSVKGRFTISRDNAKNTVYLQMNSLKPEDTAVYYCTADGIYPVLKFDYDYWGQGTQVTVSS	low polyreactivity
QVQLVESGGGLVQAGGSLRLSCAASGSTFYRNAMGWYRQAPGKERELVAAITSRGTRTFYADSVKGRFTISRDNAKNTVYLQMNSLKPEDTAVYYCAVTYQAEYEYDYWGQGTQVTVSS	low polyreactivity
QVQLVESGGGLVQAGGSLRLSCAASGSTFYRNAMGWYRQAPGKERELVAGISRRGGSTYYADSVKGRFTISRDNAKNSVYLQMNSLKPEDTAVYYCAADVRSGGVAYGYGYWGQGTQVTVSS	high polyreactivity
QVQLVESGGGLVQAGGSLRLSCAASGSTFYRYAMGWYRQAPGKERELVAAITSAGSTNYADSVKGRFTISRDNAKNTVYLQMNSLKPEDTAVYYCAADHGRPYFSYDYWGQGTQVTVSS	low polyreactivity
QVQLVESGGGLVQAGGSLRLSCAASGSTFYRYAMGWYRQAPGKERELVAAITWSGGSTYYADSVKGRFTISRDNAKNTVYLQMNSLKPEDTAVYYCNAVARYYYKDQTIIHSPREDYWGQGTQVTVSS	low polyreactivity
QVQLVESGGGLVQAGGSLRLSCAASGSTFYRYTMGWYRQAPGKERELVAAITRSSGSTYYADSVKGRFTISRDNEKNTVYLQMNCLKPEDTAVYYCAAYVGGDRGFDYWGQGTQVTVSS	high polyreactivity
QVQLVESGGGLVQAGGSLRLSCAASGSTFYSNAMGWYRQAPGKERELVASISWSSGSTYYADSVKGRFTISRDNAKNTVYLQMNSLKPEDTAVYYCATDAGGPYRFGYWGQGTQVTVSS	low polyreactivity
QVQLVESGGGLVQAGGSLRLSCAASGSTFYSNAMGWYRQAPGKERELVATISQRGGRTYYADSVKGRFTISRDNAKNTVYLQMNSLKPEDTAVYYCAKAATSWYGRYGYDYWGQGTQVTVSS	low polyreactivity
QVQLVESGGGLVQAGGSLRLSCAASGSTFYSNVMGWYRQAPGKERELVAAISRSGGSTYYADSVKGRFTISRDNAKNTVYLQMNSLKPEDTAVYYCAARTYRRPYYSWGQGTQVTVSS	high polyreactivity
QVQLVESGGGLVQAGGSLRLSCAASGSTFYSYAMGWYRQAPGKERELVAAISSSAGSTYYADSVKGRFTISRDNAKNTVYLQMNSLKPEDTAVYYCAAPKRYGVRYGYWGQGTQVTVSS	high polyreactivity
QVQLVESGGGLVQAGGSLRLSCAASGSTFYSYAMGWYRQAPGKERELVAAISSSSGSTYYADSVKGRFTISRDNAKNTVYLQMNSLKPEDTAVYYCNRGRRYSHKYDYWGQGTQVTVSS	high polyreactivity
QVQLVESGGGLVQAGGSLRLSCAASGSTFYSYAMGWYRQAPGKERELVADIDWSGGSTYYADSVKGRFTISRDNAKNTVYLQMNSLKPEDTAVYYCNAERGATGYYVTGDDYWGQGTQVTVSS	low polyreactivity
